Target: T1, CD19 (UniProt P15391 20-556, limits assumed)
T1 sequence (looked up): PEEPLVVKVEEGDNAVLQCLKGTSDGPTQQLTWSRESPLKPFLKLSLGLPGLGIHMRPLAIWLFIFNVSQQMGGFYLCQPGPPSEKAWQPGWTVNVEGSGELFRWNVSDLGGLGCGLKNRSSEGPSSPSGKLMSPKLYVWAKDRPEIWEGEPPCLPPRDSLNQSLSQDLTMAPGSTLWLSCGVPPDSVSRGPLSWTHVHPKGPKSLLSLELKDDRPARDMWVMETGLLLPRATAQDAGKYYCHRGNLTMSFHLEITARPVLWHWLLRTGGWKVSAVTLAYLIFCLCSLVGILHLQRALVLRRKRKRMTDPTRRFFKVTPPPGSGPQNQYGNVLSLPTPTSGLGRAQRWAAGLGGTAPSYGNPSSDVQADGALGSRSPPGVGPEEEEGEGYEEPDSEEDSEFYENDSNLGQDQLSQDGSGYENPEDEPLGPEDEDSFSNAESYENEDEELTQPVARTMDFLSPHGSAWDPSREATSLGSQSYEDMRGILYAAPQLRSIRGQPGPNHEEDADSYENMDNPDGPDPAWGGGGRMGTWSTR
Assay: cell-based or functional assay

B1: huB4-DGN462 (antibody, V domains shown)
VH: QVQLVQPGAEVVKPGASVKLSCKTSGYTFTSNWMHWVKQAPGQGLEWIGEIDPSDSYTNYNQNFQGKAKLTVDKSTSTAYMEVSSLRSDDTAVYYCARGSNPYYYAMDYWGQGTSVTVSS
VL: EIVLTQSPAIMSASPGERVTMTCSASSGVNYMHWYQQKPGTSPRRWIYDTSKLASGVPARFSGSGSGTDYSLTISSMEPEDAATYYCHQRGSYTFGGGTKLEIKR
- median IC50 of cytotoxic activity (MTT assay, 72 h) in B cell lymphoma cell lines: 0.1 nM
- median IC50 of cytotoxic activity (MTT assay, 72 h) in eight T cell-derived lymphomas with lower CD19 expression: 1.75 nM
